# Data reported in patent US12331106B2, “Anti-angiopoietin-2 antibodies that induce Tie2 activation” (Institute for Basic Science, priority 2018, dated 2025).
# What was measured:
# Tie2 receptor = assay: Tie2 phosphorylation in HUVECs (immunoprecipitation/Western); type: cell-based, human; settings: antibody 0.02-50 μg/ml with hAng2 1 μg/ml, 30 min
# Experimental: Ang2 binds to the Tie2 receptor and acts as a weak agonist or antagonist. The anti-Ang2 antibody developed in this invention binds to Ang2 to induce Ang2-antibody complexes, further causing clustering of Tie2 receptors and consequently enhancing activation of Tie2 receptor. Experiments were conducted to analyze the effect of anti-Ang2 antibody on Tie2 phosphorylation using HUVECs.
# Specifically, HUVECs (LONZA™) were cultured in EGM-2 (LONZA™) at 37° C. and 5% CO2 concentration in a 100 mm culture dish. At 80-90% confluency, the cells were changed to EBM-2 (LONZA™) medium for 2 hrs˜ 6 hrs for serum starvation. Humanized anti-Ang2 antibodies at various concentrations (0.02 μg/ml to 50 μg/ml) were mixed with hAng2 protein (1 μg/ml, R&D® Systems) for 30 min. Then, the mixtures were treated with the cultured cells and further incubated for 30 min. The cells were washed twice with cold PBS and then lysed in 1000 μl of lysis buffer (10 mM Tris-Cl pH 7.4, 150 mM NaCl, 5 mM EDTA, 10% glycerol, 1% TRITON™ X-100 (non-ionic polyoxyethylene surfactant), protease inhibitor, phosphatase inhibitor) and then lysed at 4° C. for 60 min. Cell extracts were prepared and centrifuged at 12,000 rpm for 10 min. The supernatant was quantitated by bicinchoninic (BCA) assay.
# To 0.5 mg of cell lysate, 1 μg of Tie2 antibody (R&D® Systems, AF313) was added and incubated overnight at 4° C. […]
# [1] = system: choroidal neovascularization (CNV); assay: Laser-induced CNV model, subcutaneous injection: CNV inhibition; type: in vivo, mice; settings: 25 mg/kg subcutaneous at 1 day; 8 days after laser photocoagulation
# Experimental: To determine the effect of subcutaneously injected 2C8H11 antibody in CNV inhibition, the subcutaneous administration of 2C8H11 antibody (25 mg/kg) was performed at 1 day after laser photocoagulation. As a control, Fc (25 mg/kg) was administered in a same manner to the mice. Anti-CD31 antibody (1:200, Millipore®) was used for the detection of endothelial cells of CNV, and CD31+CNV volumes of the RPE-choroid-sclera flat mounts were calculated using the MATLAB® Image Processing Toolbox™(Math Works) at 8 days after laser photocoagulation (FIG. 16A).
# [2] = system: downstream signaling of the Tie2 receptor (Akt phosphorylation) in HUVECs; assay: Akt phosphorylation in HUVECs by humanized anti-Ang2 antibodies (immunoblot); type: cell-based, human; settings: hAng2 1 μg/ml, 30 min, antibody 0.5 μg/ml, maintained until 50 μg/ml
# Experimental: To investigate whether the humanized anti-Ang2 antibodies induce the downstream signaling of the Tie2 receptor in endothelial cells, HUVECs (LONZA™) were treated with human Ang2 protein together with humanized anti-Ang2 antibody. Then, the level of Akt phosphorylation, the main downstream signaling protein of Tie2 receptor was measured by immunoblotting. To compare the degree of Akt activation, cells were treated with full-length hAng2 (R&D® Systems) alone or antibody alone in the experiment.
# Specifically, HUVEC cells (1×10^5 cells/ml) were cultured in EGM-2 (LONZA™) at 37° C. in 60 mm culture dish. Cells of 90% confluency were incubated with EBM-2 (LONZA™) for 4 hrs. The serum-starved HUVECs were treated with the mixture of anti-Ang2 antibody and hAng2 protein (1 μg/ml, R&D® Systems), and further incubated for 30 min. The cells were washed with cold PBS, treated with lysis buffer, and lysed at 4° C. for 20 min. Then, the cell lysates were prepared by centrifugation at 13000 rpm for 15 min. 5× SDS sample buffer was added to the cell lysate and the mixture was boiled at 95° C. for 5 min. Then, the mixture was subjected to SDS-PAGE and subsequent Western blotting.
# To investigate the phosphorylation of Akt, the membrane was blocked with 5% skim milk-containing TBST for 1 hr at RT, and incubated with anti-phospho-Akt antibody (S473) at 4° C. for about 8 hrs. […]
# [3] = system: CD31+ endothelial cells of CNV; assay: Co-localization of subcutaneously injected antibody with CD31 in endothelial cells of CNV; type: in vivo, mice; settings: 25 mg/kg subcutaneous at 1 day; 2, 4 and 8 days after laser photocoagulation
# Experimental: To investigate whether subcutaneously injected 2C8H11 can also exert the therapeutic effects on CNV, we firstly evaluated co-localization 2C8H11 antibody and CD31 in endothelial cells of CNV. The subcutaneous administration of 2C8H11 antibody (25 mg/kg) was performed at 1 day after laser photocoagulation. As a control, Fc (25 mg/kg) was administered in the same manner to the mice. The co-localization of 2C8H11 antibody and anti-CD31 antibody (1:200, Millipore®) in endothelial cells of CNV was directly detected by anti-human IgG antibody (1:1000, Jackson ImmunoResearch Laboratories) at 2, 4, and 8 days after laser photocoagulation (FIG. 15A).
molecule,measurement,setting,value
"2C8H11: humanized anti-Ang2 human IgG1 antibody from mouse 2C8; VH SEQ ID NO: 55, VL SEQ ID NO: 56 (antibody, V domains shown, human IgG1 constant regions; VH; VL) VH: QVQLVQSGAEVKKPGASVKVSCKASGYTFTSYWMHWVRQAPGQGLEWMGMIDPSDSETRLNQKFKDRVTMTRDTSTSTVYMELSSLRSEDTAVYYCARRFYYGSDWYFDVWGQGTLVTVSS VL: DIQLTQSPSFLSASVGDRVTITCKASQDVGTAVAWYQQKPGKAPKLLIYWASTRHTGVPSRFSGSGSGTEFTLTISSLQPEDFATYYCQQYSSYPLTFGQGTKVEIK",phosphorylation of Tie2,Tie2 receptor,strongly induced in a dose-dependent manner
same,inhibition of CNV formation compared with Fc (CD31+ CNV volume),[1],69.9%
same,Akt phosphorylation,[2],increased markedly
same,detection of administered antibody in CD31+ endothelial cells in CNV area,[3],highly detectable
